In data set [1] the target is full-length AcrIIA15 (Staphylococcus (identified from Staphylococcus genomes)). Description: SEC; dimerization state of wild-type or mutated AcrIIA15; Superdex 75, 20 mM Tris-HCl pH 7.5, 0.5 M NaCl.
The target is the same in data set [2]. Description: crystal structure; free full-length AcrIIA15; 2.34 Å.
The target is the same in data set [3]. Description: crystal structure; AcrIIA15 (full-length or NTD) with IR1 promoter DNA, mixed at 2:1.1 in 20 mM Tris pH 7.5, 100 mM NaCl; 3.15 Å and 3.10 Å.
For data set [4] the target is unchanged. Description: cryo-EM structure; SaCas9-sgRNA-AcrIIA15-IR1 quaternary complex, mixed at 1:1.1:0.9:0.6, purified by SEC in 20 mM Tris pH 7.5, 0.1 M NaCl; 3.82 Å.
For data set [5], the target named is N-terminal domain of AcrIIA15 (AcrIIA15^NTD) (Staphylococcus (identified from Staphylococcus genomes)). Description: crystal structure; AcrIIA15 (full-length or NTD) with IR1 promoter DNA, mixed at 2:1.1 in 20 mM Tris pH 7.5, 100 mM NaCl; 3.15 Å and 3.10 Å.
Data set [6] deals with full-length AcrIIA15 R2A mutant (Staphylococcus (identified from Staphylococcus genomes)). The data set can be described thus: SEC; dimerization state of wild-type or mutated AcrIIA15; Superdex 75, 20 mM Tris-HCl pH 7.5, 0.5 M NaCl.
For data set [7], the target named is T1, AcrIIA15 NTD (UniProt PDB:8JFR_1 1-63).
T1 sequence: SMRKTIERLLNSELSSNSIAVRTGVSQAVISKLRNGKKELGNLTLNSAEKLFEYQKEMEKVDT
The data set can be described thus: crystal structure; Promoter EMSA: 20 mM Tris-HCl pH 7.5, 300 mM NaCl, on ice/4 C, 30 min; SaCas9 EMSA: 20 mM Tris pH 7.5, 200 mM NaCl, 10 mM EDTA, RT; SPR: 10 mM Na2HPO4, 2 mM KH2PO4, 0.3 M NaCl; SEC: 20 mM Tris pH 7.5, 300 mM NaCl. The following applies: protein: recombinant; tags: C-His6 or His6-Sumo (removed); chain copies: 2; 5' overhang 1 nt on both strands.

Data set [8] concerns the target T2, AcrIIA15 full-length (UniProt PDB:8JG9_3 1-171).
T2 sequence: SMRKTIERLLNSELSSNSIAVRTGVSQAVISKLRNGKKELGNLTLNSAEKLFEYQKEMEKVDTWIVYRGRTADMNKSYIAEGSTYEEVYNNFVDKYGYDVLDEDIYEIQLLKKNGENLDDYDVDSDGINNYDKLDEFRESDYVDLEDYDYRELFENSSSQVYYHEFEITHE
Described as above. To be noted: protein: recombinant; tags: C-terminal His6, or His6-Sumo removed by Ulp1; chain copies: 2; 5' overhang 1 nt on both strands.

In data set [9] the target is T2, AcrIIA15 full-length. The data set can be described thus: EMSA; Promoter EMSA: 20 mM Tris-HCl pH 7.5, 300 mM NaCl, on ice/4 C, 30 min; SaCas9 EMSA: 20 mM Tris pH 7.5, 200 mM NaCl, 10 mM EDTA, RT; SPR: 10 mM Na2HPO4, 2 mM KH2PO4, 0.3 M NaCl; SEC: 20 mM Tris pH 7.5, 300 mM NaCl. To be noted: protein: recombinant; tags: C-terminal His6, or His6-Sumo removed by Ulp1; chain copies: 2; blunt.

For data set [10], the target named is T3, AcrIIA15 K31A (UniProt PDB:8JG9_3 1-171, K32A).
T3 sequence: T2 sequence with K32A
The data set is described as above. The following applies: protein: recombinant; tags: C-terminal His6; chain copies: 2; label: 5'-Cy3 on strand 1; blunt.

Data set [11] has as its target T4, AcrIIA15 R2A/L44A (UniProt PDB:8JG9_3 1-171, R3A;L45A).
T4 sequence: T2 sequence with R3A, L45A
The description is as above. To be noted: protein: recombinant; tags: C-terminal His6; label: 5'-Cy3 on strand 1; blunt.

The target of data set [12] is T5, AcrIIA15 L44A (UniProt PDB:8JG9_3 1-171, L45A).
T5 sequence: T2 sequence with L45A
The description is as above. To be noted: protein: recombinant; tags: C-terminal His6; label: 5'-Cy3 on strand 1; blunt.

The target in data set [13] is T6, AcrIIA15 K37A (UniProt PDB:8JG9_3 1-171, K38A).
T6 sequence: T2 sequence with K38A
Described as above. To be noted: protein: recombinant; tags: C-terminal His6; chain copies: 2; label: 5'-Cy3 on strand 1; blunt.

Data set [14] has as its target T2, AcrIIA15 full-length. Description: SPR; Promoter EMSA: 20 mM Tris-HCl pH 7.5, 300 mM NaCl, on ice/4 C, 30 min; SaCas9 EMSA: 20 mM Tris pH 7.5, 200 mM NaCl, 10 mM EDTA, RT; SPR: 10 mM Na2HPO4, 2 mM KH2PO4, 0.3 M NaCl; SEC: 20 mM Tris pH 7.5, 300 mM NaCl. To be noted: protein: recombinant; tags: C-terminal His6, or His6-Sumo removed by Ulp1; chain copies: 2; blunt.

Data set [15] has as its target T7, SaCas9;AcrIIA15 full-length (Staphylococcus aureus;, UniProt J7RUA5;PDB:8JG9_3 1-1053;1-171, |).
T7 sequence 1: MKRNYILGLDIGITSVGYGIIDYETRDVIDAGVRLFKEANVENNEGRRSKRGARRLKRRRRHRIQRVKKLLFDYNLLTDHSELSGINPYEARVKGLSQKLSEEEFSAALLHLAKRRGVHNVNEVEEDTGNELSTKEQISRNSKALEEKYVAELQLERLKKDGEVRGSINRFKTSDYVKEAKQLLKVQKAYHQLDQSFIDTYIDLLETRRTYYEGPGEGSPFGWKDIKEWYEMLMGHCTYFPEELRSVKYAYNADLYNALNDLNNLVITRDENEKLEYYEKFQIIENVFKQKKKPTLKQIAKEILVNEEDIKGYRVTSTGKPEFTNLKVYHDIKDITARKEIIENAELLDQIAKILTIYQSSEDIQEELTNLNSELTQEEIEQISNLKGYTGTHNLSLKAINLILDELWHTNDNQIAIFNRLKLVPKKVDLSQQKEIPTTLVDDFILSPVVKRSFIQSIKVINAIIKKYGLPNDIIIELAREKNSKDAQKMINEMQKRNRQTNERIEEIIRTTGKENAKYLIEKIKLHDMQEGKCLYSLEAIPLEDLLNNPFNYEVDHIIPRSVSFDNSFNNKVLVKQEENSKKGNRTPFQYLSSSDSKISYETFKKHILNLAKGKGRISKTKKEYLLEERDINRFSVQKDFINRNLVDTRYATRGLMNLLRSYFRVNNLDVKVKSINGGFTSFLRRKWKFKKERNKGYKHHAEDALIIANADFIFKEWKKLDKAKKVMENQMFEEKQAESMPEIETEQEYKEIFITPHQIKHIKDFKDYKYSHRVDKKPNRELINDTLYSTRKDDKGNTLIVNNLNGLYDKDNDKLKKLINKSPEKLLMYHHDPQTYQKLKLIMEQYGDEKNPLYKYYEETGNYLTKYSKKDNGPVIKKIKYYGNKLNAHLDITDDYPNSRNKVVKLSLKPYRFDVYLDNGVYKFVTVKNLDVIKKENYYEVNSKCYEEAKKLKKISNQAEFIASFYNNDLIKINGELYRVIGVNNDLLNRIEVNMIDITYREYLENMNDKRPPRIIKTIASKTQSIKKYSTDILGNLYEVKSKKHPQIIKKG
T7 sequence 2: T2 sequence
Description: cryo-EM; with sgRNA; AcrIIA15 dimer, two SaCas9-sgRNA; Promoter EMSA: 20 mM Tris-HCl pH 7.5, 300 mM NaCl, on ice/4 C, 30 min; SaCas9 EMSA: 20 mM Tris pH 7.5, 200 mM NaCl, 10 mM EDTA, RT; SPR: 10 mM Na2HPO4, 2 mM KH2PO4, 0.3 M NaCl; SEC: 20 mM Tris pH 7.5, 300 mM NaCl. To be noted: protein: recombinant;recombinant; tags: His6-Sumo removed by Ulp1;C-terminal His6, or His6-Sumo removed by Ulp1; chain copies: 2;2; blunt.

Substitutions are numbered along the chain they refer to.

The record followed here is PMC10901769, “An anti-CRISPR that represses its own transcription while blocking Cas9-target DNA binding”.

With full-length AcrIIA15 (natural protein), the stoichiometry N in data set [1], in data set [2], in data set [3] and in [4] was 2 in each case.
The molecule “N-terminal domain of AcrIIA15 (AcrIIA15^NTD) (domain or fragment)” showed a stoichiometry N in data set [5] of 2.
“full-length AcrIIA15 R2A mutant (natural protein)”: in data set [6], the stoichiometry N is 2.

B1: IR1'' (dsDNA)
DNA 1: ATTATGACAAATGTCATAG
DNA 2: TCTATGACATTTGTCATAA
Regarding B1, the binding result in data set [7] and in data set [8] was “binds” in each case.

B2: IR1 mutant in four base pairs (dsDNA)
DNA 1: ATAATTGTTACAAATGTAACAGAAAA
DNA 2: TTTTCTGTTACATTTGTAACAATTAT
As for B2, the binding result in [9] is “no binding”.

B3: Cy3-IR1 (dsDNA)
DNA 1: ATAATTATGACAAATGTCATAGAAAA
DNA 2: TTTTCTATGACATTTGTCATAATTAT
Regarding B3, the binding result in [10], in data set [11], in data set [12] and in [13] was “no binding” throughout.

B4: IR2 (dsDNA)
DNA 1: TGACTTATGACGAACGTCATAATATA
DNA 2: TATATTATGACGTTCGTCATAAGTCA
As for B4, the Kd in data set [14] stood at 1.8 ± 0.66 nM.

B5: IR1 (dsDNA)
DNA 1: ATAATTATGACAAATGTCATAGAAAA
DNA 2: TTTTCTATGACATTTGTCATAATTAT
As to B5, in [14], the dissociation constant Kd worked out at 7.49 ± 0.6 nM. For the same molecule, in data set [15], the binding result is “binds”.
